The text below walks through data of patent publication US11969464B2, “Amidated peptides and their deamidated counterparts displayed by HLA-A*02 for use in immunotherapy against different types of cancers” (Immatics Biotechnologies GmbH, priority 2020, dated 2024).

One assay deals with CD8+ T cells. As to the kind of experiment: In vitro T cell priming assay with aAPCs loaded with peptide/MHC complexes and anti-CD28, pMHC multimer readout. The format is cell-based, human. As to conditions: percentage of positive wells and donors (among evaluable), healthy HLA-A*02+ donors. From the text: In order to obtain information regarding the immunogenicity of the TUMAPs of the present invention, the inventors performed investigations using an in vitro T cell priming assay based on repeated stimulations of CD8+ T cells with artificial antigen presenting cells (aAPCs) loaded with peptide/MHC complexes and anti-CD28 antibody.
In order to perform in vitro stimulations by artificial antigen presenting cells loaded with peptide-MHC complex (pMHC) and anti-CD28 antibody, the inventors first isolated CD8+ T cells from fresh HLA-A*02 leukapheresis products via positive selection using CD8 microbeads (Miltenyi Biotec, Bergisch-Gladbach, Germany) of healthy donors obtained from the University clinics Mannheim, Germany, after informed consent.
PBMCs and isolated CD8+ lymphocytes were incubated in T cell medium (TCM) until use consisting of RPMI-Glutamax (Invitrogen, Karlsruhe, Germany) supplemented with 10% heat inactivated human AB serum (PAN-Biotech, Aidenbach, Germany), 100 U/ml Penicillin/100 μg/ml Streptomycin (Cambrex, Cologne, Germany), 1 mM sodium pyruvate (CC Pro, Oberdorla, Germany), 20 μg/ml Gentamycin (Cambrex). 2.5 ng/ml IL-7 (PromoCell, Heidelberg, Germany) and 10 U/ml IL-2 (Novartis Pharma, Nurnberg, Germany) were also added to the TCM at this step.
Generation of pMHC/anti-CD28 coated beads, T cell stimulations and readout was performed in a highly defined in vitro system using four different pMHC molecules per stimulation condition and 8 different pMHC molecules per readout condition.
The purified co-stimulatory mouse IgG2a anti human CD28 Ab 9.3 (Jung et al., 1987) was chemically biotinylated using Sulfo-N-hydroxysuccinimidobiotin as recommended by the manufacturer (Perbio, Bonn, Germany). Beads used were 5.6 μm diameter streptavidin coated polystyrene particles (Bangs Laboratories, Illinois, USA).
800.000 beads/200 μl were coated in 96-well plates in the presence of 4×12.5 ng different biotin-pMHC, washed and 600 ng biotin anti-CD28 were added subsequently in a volume of 200 μl. Stimulations were initiated in 96-well plates by co-incubating 1×10^6 CD8+ T cells with 2×10^5 washed coated beads in 200 μl TCM supplemented with 5 ng/ml IL-12 (PromoCell) for 3 days at 37° C. Half of the medium was then exchanged by fresh TCM supplemented with 80 U/ml IL-2 and incubating was continued for 4 days at 37° C. This stimulation cycle was performed for a total of three times. For the pMHC multimer readout using 8 different pMHC molecules per condition, a two-dimensional combinatorial coding approach was used as previously described (Andersen et al., 2012) with minor modifications encompassing coupling to 5 different fluorochromes. Finally, multimeric analyses were performed by staining the cells with Live/dead near IR dye (Invitrogen, Karlsruhe, Germany), CD8-FITC antibody clone SK1 (BD, Heidelberg, Germany) and fluorescent pMHC multimers. For analysis, a BD LSRII SORP cytometer equipped with appropriate lasers and filters was used. Peptide specific cells were calculated as percentage of total CD8+ cells. Evaluation of multimeric analysis was done using the FlowJo software (Tree Star, Oregon, USA). In vitro priming of specific multimer+CD8+ lymphocytes was detected by comparing to negative control stimulations.

For the next assay, the target named is HLA-A*02:01 (Homo sapiens, UniProt P04439, D140Y/D185E/D98H/E176V/E277Q/G131W/G231S/I119V/I121R/I166T/I218V/L300P/L318F/N151K/N90K/P208A/P217A/Q86G/Q94H/R138H/R169H/T345S). In words: MHC binding assay (UV-ligand exchange, anti-β2m ELISA). As to conditions: peptide exchange yield, binding to HLA-A*02:01. From the text:
Candidate peptides for T cell based therapies according to the present invention were further tested for their MHC binding capacity (affinity). The individual peptide-MHC complexes were produced by UV-ligand exchange, where a UV-sensitive peptide is cleaved upon UV-irradiation and exchanged with the peptide of interest as analyzed. Only peptide candidates that can effectively bind and stabilize the peptide-receptive MHC molecules prevent dissociation of the MHC complexes. To determine the yield of the exchange reaction, an ELISA was performed based on the detection of the light chain (β2m) of stabilized MHC complexes. The assay was performed as generally described in Rodenko et al. (Rodenko et al., 2006).
96 well MAXISorp plates (NUNC) were coated over night with 2 μg/ml streptavidin in PBS at room temperature, washed 4× and blocked for 1 h at 37° C. in 2% BSA containing blocking buffer. Refolded HLA-A*02:01/MLA-001 monomers served as standards, covering the range of 15-500 ng/ml. Peptide-MHC monomers of the UV-exchange reaction were diluted 100-fold in blocking buffer. Samples were incubated for 1 h at 37° C., washed four times, incubated with 2 μg/ml HRP conjugated anti-β2m for 1 h at 37° C., washed again and detected with TMB solution that is stopped with […]. Absorption was measured at 450 nm. Candidate peptides that show a high exchange yield (preferably higher than 50%, most preferred higher than 75%) are generally preferred for a generation and production of antibodies or fragments thereof, and/or T cell receptors or fragments thereof, as they show sufficient avidity to the MHC molecules and prevent dissociation of the MHC complexes.
For orientation: ELISA stands for enzyme-linked immunosorbent assay.

Consider “7 (ALADLTGTV; peptide displayed by HLA-A*02) [compound 7]”, for which the “Wells positive [%]” value in the assay with CD8+ T cells is “+ (<20% = +)”. Further, in the assay with HLA-A*02:01, the Peptide exchange entry is on record as “++++ (≥75% = ++++)”. For “101 (TLDATVVEL; peptide displayed by HLA-A*02) [compound 101]”, in that order: “++ (20%-49% = ++)” and “++++ (≥75% = ++++)”. “76 (SLLRDFTLV; peptide displayed by HLA-A*02) [compound 76]”: the “Wells positive [%]” value with CD8+ T cells was “+ (<20% = +)”. The Peptide exchange result in the assay with HLA-A*02:01 is reported as “++++ (≥75% = ++++)”. As to “47 (VIDSTLVKV; peptide displayed by HLA-A*02) [compound 47]”, the “Wells positive [%]” value with CD8+ T cells is given as “++ (20%-49% = ++)”. For the same substance, the Peptide exchange result in the assay with HLA-A*02:01 is listed as “+++ (≥50% = +++)”.

With “36 (SLYDFTGEQMAA; peptide displayed by HLA-A*02) [compound 36]”, in the assay with HLA-A*02:01, the Peptide exchange entry was “+++ (≥50% = +++)”. On to “68 (RLQDTTIGL; peptide displayed by HLA-A*02) [compound 68]”, for which the Peptide exchange entry with HLA-A*02:01 was “++++ (≥75% = ++++)”. Same read-out and setting: the entry for “94 (YLWWVNDQSL; peptide displayed by HLA-A*02) [compound 94]” is “++++ (≥75% = ++++)”; for “10 (FLGEDISNFL; peptide displayed by HLA-A*02) [compound 10]” it is “++++ (≥75% = ++++)”. Regarding “95 (KLAPEDLADLTAL; peptide displayed by HLA-A*02) [compound 95]”, the Peptide exchange entry in the assay with HLA-A*02:01 is “++++ (≥75% = ++++)”. On the same count and under the same terms, then “88 (RLLDETVDVTI; peptide displayed by HLA-A*02) [compound 88]”, with “++++ (≥75% = ++++)”. Turning to “69 (SLLDENDVSSYL; peptide displayed by HLA-A*02) [compound 69]”, the Peptide exchange entry with HLA-A*02:01 is reported as “++++ (≥75% = ++++)”.

As for “63 (GLDRTQLVNV; peptide displayed by HLA-A*02) [compound 63]”, the Peptide exchange entry in the assay with HLA-A*02:01 is listed as “++++ (≥75% = ++++)”. As for “61 (FISDFTMTI; peptide displayed by HLA-A*02) [compound 61]”, the Peptide exchange entry with HLA-A*02:01 is given as “++++ (≥75% = ++++)”.

On to “12 (FVDEHTIDI; peptide displayed by HLA-A*02) [compound 12]”, for which, in the assay with HLA-A*02:01, the Peptide exchange result is recorded as “+++ (≥50% = +++)”. For “19 (RLLDTTDVYLL; peptide displayed by HLA-A*02) [compound 19]”, the Peptide exchange entry with HLA-A*02:01 was “++++ (≥75% = ++++)”. Same read-out and setting: the entry for “31 (TLIDATWLV; peptide displayed by HLA-A*02) [compound 31]” is “++++ (≥75% = ++++)”; for “37 (AIDDTAARL; peptide displayed by HLA-A*02) [compound 37]” it is “+++ (≥50% = +++)”; for “64 (ILFDPDNSSAL; peptide displayed by HLA-A*02) [compound 64]” it is “++++ (≥75% = ++++)”.

Turning to “53 (ILTDITGHDV; peptide displayed by HLA-A*02) [compound 53]”, the Peptide exchange entry in the assay with HLA-A*02:01 is on record as “+++ (≥50% = +++)”. On the same count and under the same terms, the entry for “72 (ALDSTNSEL; peptide displayed by HLA-A*02) [compound 72]” is “++++ (≥75% = ++++)”; for “24 (QLLGRDISL; peptide displayed by HLA-A*02) [compound 24]” it is “++++ (≥75% = ++++)”; for “17 (NVDSTILNL; peptide displayed by HLA-A*02) [compound 17]” it is “++++ (≥75% = ++++)”. For “83 (FLNVDVSEV; peptide displayed by HLA-A*02) [compound 83]”, the Peptide exchange result with HLA-A*02:01 is reported as “++++ (≥75% = ++++)”.

For the substance “85 (LLDITNPVL; peptide displayed by HLA-A*02) [compound 85]”, the Peptide exchange entry with HLA-A*02:01 is “++++ (≥75% = ++++)”. Still for that read-out and setting: the entry for “80 (ALDSSLQLL; peptide displayed by HLA-A*02) [compound 80]” is “++++ (≥75% = ++++)”; for “13 (VLMDGTLKQV; peptide displayed by HLA-A*02) [compound 13]” it is “++++ (≥75% = ++++)”.

On to “16 (KLISDMGKDVSA; peptide displayed by HLA-A*02) [compound 16]”, for which the Peptide exchange entry with HLA-A*02:01 is “+++ (≥50% = +++)”. Still for that read-out and setting: then “27 (YLFEDISQL; peptide displayed by HLA-A*02) [compound 27]”, with “++++ (≥75% = ++++)”; and “4 (YVWDRTELL; peptide displayed by HLA-A*02) [compound 4]”, with “++++ (≥75% = ++++)”; and “14 (YIYDGKDMSSL; peptide displayed by HLA-A*02) [compound 14]”, with “+++ (≥50% = +++)”.

In the case of “79 (ALAGLVYDA; peptide displayed by HLA-A*02) [compound 79]”, the Peptide exchange entry with HLA-A*02:01 is “++++ (≥75% = ++++)”. On to “58 (SQDASLLKV; peptide displayed by HLA-A*02) [compound 58]”, for which the Peptide exchange result with HLA-A*02:01 is recorded as “+++ (≥50% = +++)”. Still for that read-out and setting: then “92 (YLADFSHAT; peptide displayed by HLA-A*02) [compound 92]”, with “++++ (≥75% = ++++)”; and “52 (ILFDDSVFTL; peptide displayed by HLA-A*02) [compound 52]”, with “++++ (≥75% = ++++)”; and “11 (GLVDGSSVTV; peptide displayed by HLA-A*02) [compound 11]”, with “++++ (≥75% = ++++)”. For the substance “34 (SLLDGSESAKL; peptide displayed by HLA-A*02) [compound 34]”, the Peptide exchange result with HLA-A*02:01 is “++++ (≥75% = ++++)”. On the same count and under the same terms, then “46 (SLSDVSQAV; peptide displayed by HLA-A*02) [compound 46]”, with “+++ (≥50% = +++)”; and “41 (FLDTSTADV; peptide displayed by HLA-A*02) [compound 41]”, with “++++ (≥75% = ++++)”. For “73 (ALMDVSQNV; peptide displayed by HLA-A*02) [compound 73]”, in the assay with HLA-A*02:01, the Peptide exchange result was “++++ (≥75% = ++++)”. Turning to “81 (AVDKTQTSV; peptide displayed by HLA-A*02) [compound 81]”, the Peptide exchange result with HLA-A*02:01 is recorded as “+++ (≥50% = +++)”.

With “42 (IQDTSHLAV; peptide displayed by HLA-A*02) [compound 42]”, in the assay with HLA-A*02:01, the Peptide exchange result is reported as “+++ (≥50% = +++)”. The same measure, in the same setting: the entry for “87 (NMYDLTFHV; peptide displayed by HLA-A*02) [compound 87]” is “++++ (≥75% = ++++)”. Regarding “33 (ILFDLTHRV; peptide displayed by HLA-A*02) [compound 33]”, in the assay with HLA-A*02:01, the Peptide exchange entry is reported as “++++ (≥75% = ++++)”. For “57 (SLDISLPNL; peptide displayed by HLA-A*02) [compound 57]”, in the assay with HLA-A*02:01, the Peptide exchange result is listed as “++++ (≥75% = ++++)”.
